We go through 16 molecules from patent US20240010722A1 (published 2024).

First the molecules themselves.
T1: human MAdCAM (human, UniProt Q13477 19-317, limits assumed)
T1 construct: also called huMAdCAM; human MAdCAM-1
T1 sequence (looked up): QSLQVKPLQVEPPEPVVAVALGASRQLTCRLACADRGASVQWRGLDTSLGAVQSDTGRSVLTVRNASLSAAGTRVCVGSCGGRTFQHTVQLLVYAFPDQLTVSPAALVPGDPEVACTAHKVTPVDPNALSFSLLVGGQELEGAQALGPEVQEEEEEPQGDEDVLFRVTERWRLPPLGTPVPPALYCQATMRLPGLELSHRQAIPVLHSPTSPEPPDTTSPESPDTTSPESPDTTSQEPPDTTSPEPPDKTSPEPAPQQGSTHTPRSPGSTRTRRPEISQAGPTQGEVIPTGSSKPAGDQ

T2: mouse MAdCAM (mouse, UniProt Q61826 22-365, limits assumed)
T2 construct: also called mouse MAdCAM-1; muMAdCAM
T2 sequence (looked up): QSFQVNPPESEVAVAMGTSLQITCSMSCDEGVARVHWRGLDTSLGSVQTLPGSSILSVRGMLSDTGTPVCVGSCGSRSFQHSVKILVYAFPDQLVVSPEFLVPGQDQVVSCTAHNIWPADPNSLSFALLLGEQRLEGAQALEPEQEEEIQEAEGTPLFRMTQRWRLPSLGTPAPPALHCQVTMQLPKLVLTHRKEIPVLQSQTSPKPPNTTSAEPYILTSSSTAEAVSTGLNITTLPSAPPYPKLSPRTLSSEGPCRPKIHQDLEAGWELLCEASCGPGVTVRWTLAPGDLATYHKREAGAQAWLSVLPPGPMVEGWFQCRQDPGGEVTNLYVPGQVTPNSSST

B1: PMAB15 (bispecific antibody, human IgG1, kappa)
heavy: EVQLLESGGGLVQPGGSLRLSCAASGFTFSSYDMSWVRQAPGKGLEWVSGITISGGSTYYADSVKGRFTISRDNSKNTLYLQMNSLRAEDTAVYYCARGRGGSGWLDYWGQGTLVTVSSASTKGPSVFPLAPSSKSTSGGTAALGCLVKDYFPEPVTVSWNSGALTSGVHTFPAVLQSSGLYSLSSVVTVPSSSLGTQTYICNVNHKPSNTKVDKKVEPKSCDKTHTCPPCPAPEAAGAPSVFLFPPKPKDTLMISRTPEVTCVVVDVSHEDPEVKFNWYVDGVEVHNAKTKPREEQYNSTYRVVSVLTVLHQDWLNGKEYKCKVSNKALPAPIEKTISKAKGQPREPQVYTLPPSREEMTKNQVSLTCLVKGFYPSDIAVEWESNGQPENNYKTTPPVLDSDGSFFLYSKLTVDKSRWQQGNVFSCSVMHEALHNHYTQKSLSLSPGGGGGSGGGGSGGGGSEVQLLESGGGLVQPGGSLRLSCAASGFTFSSYWMHWVRQAPGKGLEWVSAISGSGGSTYYADSVKGRFTISRDNSKNTLYLQMNSLRAEDTAVYYCARDRPYYYDMDVWGKGTTVTVSSGGGGSGGGGSGGGGSGGGGSDIQMTQSPSSLSASVGDRVTITCRASQSISSSLAWYQQKPGKAPKLLIYAASSLQSGVPSRFSGSGSGTDFTLTISSLQPEDFATYYCQQYKSYPVTFGQGTKVEIK
light: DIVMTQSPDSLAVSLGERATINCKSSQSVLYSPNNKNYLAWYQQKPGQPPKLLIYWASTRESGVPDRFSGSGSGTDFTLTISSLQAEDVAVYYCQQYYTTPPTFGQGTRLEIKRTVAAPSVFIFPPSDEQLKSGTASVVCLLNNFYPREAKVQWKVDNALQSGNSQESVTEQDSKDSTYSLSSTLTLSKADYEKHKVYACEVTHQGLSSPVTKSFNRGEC
B2: PMAB53 (bispecific antibody, human IgG1, kappa)
heavy: B1 heavy with L114T, A513Y, S520Y, Y522N, M569I
light: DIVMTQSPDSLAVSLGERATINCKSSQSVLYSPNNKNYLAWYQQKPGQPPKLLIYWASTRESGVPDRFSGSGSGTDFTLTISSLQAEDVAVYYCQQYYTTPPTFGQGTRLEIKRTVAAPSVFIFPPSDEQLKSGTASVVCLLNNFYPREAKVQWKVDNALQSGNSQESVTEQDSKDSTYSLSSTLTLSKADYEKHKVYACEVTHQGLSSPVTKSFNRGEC
B3: PMAB16 (bispecific antibody, human IgG1, kappa)
heavy: B1 heavy with A513Y, S520Y, Y522N
light: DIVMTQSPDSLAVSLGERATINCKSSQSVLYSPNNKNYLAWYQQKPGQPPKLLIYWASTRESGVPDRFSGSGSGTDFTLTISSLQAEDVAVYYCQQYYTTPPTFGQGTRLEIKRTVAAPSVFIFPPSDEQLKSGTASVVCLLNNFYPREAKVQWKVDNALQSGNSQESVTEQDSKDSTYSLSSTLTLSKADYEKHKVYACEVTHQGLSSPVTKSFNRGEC
B4: PMAB17 (bispecific antibody, human IgG1, kappa)
heavy: B1 heavy with L114D, Y566G, D568Y
light: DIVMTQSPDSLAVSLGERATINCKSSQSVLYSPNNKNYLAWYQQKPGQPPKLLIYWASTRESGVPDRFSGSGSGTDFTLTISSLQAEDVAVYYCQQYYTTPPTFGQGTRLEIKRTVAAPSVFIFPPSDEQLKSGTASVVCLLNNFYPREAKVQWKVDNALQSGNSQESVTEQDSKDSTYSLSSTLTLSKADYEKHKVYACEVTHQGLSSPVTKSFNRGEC
B5: PMAB19 (bispecific antibody, human IgG1, kappa)
heavy: EVQLLESGGGLVQPGGSLRLSCAASGFTFSNSDMSWVRQAPGKGLEWVSGITISGGSTYYADSVKGRFTISRDNSKNTLYLQMNSLRAEDTAVYYCARGRGGSGWLDYWGQGTLVTVSSASTKGPSVFPLAPSSKSTSGGTAALGCLVKDYFPEPVTVSWNSGALTSGVHTFPAVLQSSGLYSLSSVVTVPSSSLGTQTYICNVNHKPSNTKVDKKVEPKSCDKTHTCPPCPAPEAAGAPSVFLFPPKPKDTLMISRTPEVTCVVVDVSHEDPEVKFNWYVDGVEVHNAKTKPREEQYNSTYRVVSVLTVLHQDWLNGKEYKCKVSNKALPAPIEKTISKAKGQPREPQVYTLPPSREEMTKNQVSLTCLVKGFYPSDIAVEWESNGQPENNYKTTPPVLDSDGSFFLYSKLTVDKSRWQQGNVFSCSVMHEALHNHYTQKSLSLSPGGGGGSGGGGSGGGGSEVQLLESGGGLVQPGGSLRLSCAASGFTFSSFWMHWVRQAPGKGLEWISYISGDSGYTNYADSVKGRFTISRDNSKNTLYLQMNSLRAEDTAVYYCARDRPYYYYMDVWGKGTTVTVSSGGGGSGGGGSGGGGSGGGGSDIQMTQSPSSLSASVGDRVTITCRASQSVSRSLAWYQQKPGKAPKLLIYAASSLQSGVPSRFSGSGSGTDFTLTISSLQPEDFATYYCQQYKSYPVTFGQGTKVEIK
light: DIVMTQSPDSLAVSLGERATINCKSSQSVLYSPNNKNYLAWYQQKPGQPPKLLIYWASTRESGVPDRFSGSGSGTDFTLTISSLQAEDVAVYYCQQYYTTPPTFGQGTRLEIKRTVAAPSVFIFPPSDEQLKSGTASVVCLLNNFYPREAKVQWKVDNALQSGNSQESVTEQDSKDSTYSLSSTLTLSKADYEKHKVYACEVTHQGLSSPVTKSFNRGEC
B6: PMAB36 (bispecific antibody, human IgG1, kappa)
heavy: B5 heavy with S494D, V631I
light: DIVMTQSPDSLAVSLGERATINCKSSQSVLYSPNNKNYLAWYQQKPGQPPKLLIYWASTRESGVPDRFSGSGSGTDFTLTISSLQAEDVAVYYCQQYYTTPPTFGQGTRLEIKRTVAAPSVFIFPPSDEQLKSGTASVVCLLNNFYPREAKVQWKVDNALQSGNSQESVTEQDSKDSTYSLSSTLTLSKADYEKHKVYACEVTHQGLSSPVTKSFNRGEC
B7: PMAB28 (bispecific antibody, human IgG1, kappa)
heavy: B5 heavy with S494D, N522Y
light: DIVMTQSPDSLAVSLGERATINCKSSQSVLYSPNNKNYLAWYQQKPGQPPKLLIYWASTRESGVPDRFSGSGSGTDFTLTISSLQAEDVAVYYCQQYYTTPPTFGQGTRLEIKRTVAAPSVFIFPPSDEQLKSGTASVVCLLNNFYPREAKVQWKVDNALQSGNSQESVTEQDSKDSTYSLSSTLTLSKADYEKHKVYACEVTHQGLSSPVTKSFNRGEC
B8: PMAB42 (bispecific antibody, human IgG1, kappa)
heavy: B5 heavy with S494D, Y696T
light: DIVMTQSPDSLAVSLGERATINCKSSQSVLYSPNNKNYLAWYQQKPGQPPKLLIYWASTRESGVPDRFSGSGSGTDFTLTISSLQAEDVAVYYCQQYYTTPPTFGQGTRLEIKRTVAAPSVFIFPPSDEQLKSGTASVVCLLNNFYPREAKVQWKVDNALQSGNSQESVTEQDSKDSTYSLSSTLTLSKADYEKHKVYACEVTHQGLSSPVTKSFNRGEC
B9: PMAB27 (bispecific antibody, human IgG1, kappa)
heavy: B5 heavy with S494D, Y520S
light: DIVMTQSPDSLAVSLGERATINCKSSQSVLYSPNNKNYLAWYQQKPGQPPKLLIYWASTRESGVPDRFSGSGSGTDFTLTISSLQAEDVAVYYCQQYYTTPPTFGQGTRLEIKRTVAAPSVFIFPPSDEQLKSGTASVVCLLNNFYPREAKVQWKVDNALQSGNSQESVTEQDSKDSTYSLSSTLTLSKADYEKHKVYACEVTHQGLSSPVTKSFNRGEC
B10: PMAB20 (bispecific antibody, human IgG1, kappa)
heavy: B5 heavy with S494D, F495Y
light: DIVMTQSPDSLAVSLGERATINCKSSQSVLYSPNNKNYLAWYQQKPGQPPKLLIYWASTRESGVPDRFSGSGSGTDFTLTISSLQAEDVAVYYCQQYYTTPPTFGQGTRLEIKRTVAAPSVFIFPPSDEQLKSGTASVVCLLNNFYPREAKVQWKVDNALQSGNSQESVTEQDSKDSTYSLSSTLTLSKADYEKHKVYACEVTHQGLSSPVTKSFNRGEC
B11: PMAB25 (bispecific antibody, human IgG1, kappa)
heavy: B5 heavy with S494D, D517S
light: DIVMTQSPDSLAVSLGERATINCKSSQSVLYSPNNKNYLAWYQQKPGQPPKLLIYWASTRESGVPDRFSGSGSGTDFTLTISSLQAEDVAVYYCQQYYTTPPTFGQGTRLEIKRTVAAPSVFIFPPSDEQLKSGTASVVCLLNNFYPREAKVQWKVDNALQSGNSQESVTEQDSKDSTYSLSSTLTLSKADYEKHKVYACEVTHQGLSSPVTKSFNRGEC
B12: PMAB26 (bispecific antibody, human IgG1, kappa)
heavy: B5 heavy with S494D, S518G
light: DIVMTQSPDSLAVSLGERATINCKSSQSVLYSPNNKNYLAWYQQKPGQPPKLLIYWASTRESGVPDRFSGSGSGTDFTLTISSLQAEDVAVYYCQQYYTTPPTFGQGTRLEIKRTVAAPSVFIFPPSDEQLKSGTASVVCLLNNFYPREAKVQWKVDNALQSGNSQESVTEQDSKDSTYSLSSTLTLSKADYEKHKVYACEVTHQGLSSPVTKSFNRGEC
B13: PMAB23 (bispecific antibody, human IgG1, kappa)
heavy: B5 heavy with S494D, I511V
light: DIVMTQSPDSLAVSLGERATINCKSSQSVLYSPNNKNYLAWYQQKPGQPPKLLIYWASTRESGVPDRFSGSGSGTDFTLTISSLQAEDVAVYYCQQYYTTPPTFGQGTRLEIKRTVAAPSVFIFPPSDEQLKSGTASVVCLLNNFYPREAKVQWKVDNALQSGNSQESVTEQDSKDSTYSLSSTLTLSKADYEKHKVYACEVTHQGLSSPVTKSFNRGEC
B14: PMAB37 (bispecific antibody, human IgG1, kappa)
heavy: B5 heavy with S494D, R633S
light: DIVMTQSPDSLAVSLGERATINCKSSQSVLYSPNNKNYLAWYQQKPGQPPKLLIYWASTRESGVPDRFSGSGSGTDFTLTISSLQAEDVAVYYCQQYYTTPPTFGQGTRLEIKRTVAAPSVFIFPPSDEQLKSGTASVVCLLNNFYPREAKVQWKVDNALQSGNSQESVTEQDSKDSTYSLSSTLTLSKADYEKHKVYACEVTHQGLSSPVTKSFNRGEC
B15: PMAB24 (bispecific antibody, human IgG1, kappa)
heavy: B5 heavy with S494D, Y513A
light: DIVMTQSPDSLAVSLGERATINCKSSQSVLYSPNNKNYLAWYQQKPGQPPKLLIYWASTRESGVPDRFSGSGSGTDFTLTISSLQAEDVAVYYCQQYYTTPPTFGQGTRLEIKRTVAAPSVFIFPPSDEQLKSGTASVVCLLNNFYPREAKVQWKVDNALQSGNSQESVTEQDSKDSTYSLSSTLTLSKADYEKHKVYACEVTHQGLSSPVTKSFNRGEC
B16: PMAB41 (bispecific antibody, human IgG1, kappa)
heavy: B5 heavy with S494D, K694Y
light: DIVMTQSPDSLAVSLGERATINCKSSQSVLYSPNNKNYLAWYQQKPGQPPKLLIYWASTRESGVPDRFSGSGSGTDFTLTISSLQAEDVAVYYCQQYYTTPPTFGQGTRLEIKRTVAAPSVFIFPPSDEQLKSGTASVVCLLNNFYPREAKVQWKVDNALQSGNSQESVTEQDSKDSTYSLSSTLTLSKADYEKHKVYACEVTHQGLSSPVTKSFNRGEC

A word on the Kd: it is the equilibrium constant for the complex coming apart. Read a low Kd as a tighter complex. In general, koff refers to the rate constant with which the complex falls apart. A high value points to a short-lived complex. The term kon denotes the rate constant with which the complex forms.

Numbering of substitutions follows the chain as printed.

The first test has as its target T1, human MAdCAM. Description: BLI (Octet). In general terms: BLI is a label-free optical method that tracks binding on a fibre tip over time.
Molecule B1 registered an equilibrium dissociation constant (Kd) of 0.0731 µM, a koff of 0.0839 s⁻¹, an on-rate (kon) of 1.15e+06 M⁻¹ s⁻¹ and a response of 0.0655.

Turning to B2, binding was put at a Kd of 0.0497 µM, the dissociation rate constant (koff) is 0.000716 s⁻¹ and the association rate constant (kon) came out at 14400 M⁻¹ s⁻¹.

In turn, B3 gave a dissociation constant Kd of 0.134 µM, a dissociation rate constant (koff) of 0.0631 s⁻¹, a kon of 472000 M⁻¹ s⁻¹ and a response of 0.186.

As for B4, binding was put at a Kd of 0.0171 µM, the off-rate constant (koff) came out at 0.0636 s⁻¹, the kon was found to be 3.73e+06 M⁻¹ s⁻¹ and the response stood at 0.0416.

The next test has as its target T3, cyno MAdCAM (cynomolgus).
T3 construct: also called cynomolgus MAdCAM
Description: BLI (Octet).
For B2, the Kd is 0.379 µM, the koff stood at 0.0217 s⁻¹ and the kon is 57100 M⁻¹ s⁻¹.

The target in another test is T2, mouse MAdCAM. Description: BLI (Octet).
The molecule B2 registered a Kd of 1.74 µM, an off-rate constant (koff) of 0.217 s⁻¹ and a kon of 125000 M⁻¹ s⁻¹.

B3 returned a dissociation constant Kd of 0.334 µM, a koff of 0.0828 s⁻¹, an on-rate constant (kon) of 248000 M⁻¹ s⁻¹ and a response of 0.0407.

For another test, the target named is T1, human MAdCAM. Description: BLI (Octet), binder on AHC tips. In short, it runs like this: (§1)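 Binding was measured on an Octet96 RED instrument using anti-human IgG Fc biosensors, which were first equilibrated in assay buffer for 20 minutes. The tips were then loaded for 240 s with test article at 10 μg/mL in assay buffer, exposed to MAdCAM-1 for 120 s of association, and returned to assay buffer for 120 s of dissociation, with MAdCAM-1 run as a seven-point serial dilution from 200 nM to 3.13 nM. Kinetic rates and the dissociation constant were derived by a global one-to-one fit in the Octet data analysis software.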
B5 had a Kd of 0.0312 µM, a koff of 0.0168 s⁻¹ and a kon of 540000 M⁻¹ s⁻¹.

B6 gave a dissociation constant Kd of 0.109 µM, a koff of 0.0325 s⁻¹ and an association rate constant (kon) of 298000 M⁻¹ s⁻¹.

Molecule B7 yielded a Kd of 0.0862 µM, an off-rate (koff) of 0.0902 s⁻¹ and an association rate constant (kon) of 1.05e+06 M⁻¹ s⁻¹.

Consider B8, for which binding was characterised by a dissociation constant (Kd) of 0.395 µM, the koff came out at 0.114 s⁻¹ and the association rate constant (kon) was 288000 M⁻¹ s⁻¹.

B9 had a Kd of 0.0922 µM and a dissociation rate constant (koff) of 0.128 s⁻¹.

Take B10: the dissociation constant (Kd) is 0.0905 µM, the koff amounted to 0.0372 s⁻¹ and the kon came to 411000 M⁻¹ s⁻¹.

For B11, the equilibrium dissociation constant (Kd) was 0.0436 µM, the koff came to 0.0212 s⁻¹ and the kon worked out at 486000 M⁻¹ s⁻¹.

The molecule B12 had a dissociation constant Kd of 0.138 µM, a dissociation rate constant (koff) of 0.0658 s⁻¹ and an on-rate constant (kon) of 476000 M⁻¹ s⁻¹.

Regarding B13, the dissociation constant Kd turned out to be 0.11 µM, the off-rate constant (koff) is 0.0389 s⁻¹ and the association rate constant (kon) was found to be 355000 M⁻¹ s⁻¹.

B14: the Kd worked out at 0.285 µM, the koff amounted to 0.0838 s⁻¹ and the kon turned out to be 294000 M⁻¹ s⁻¹.

For the molecule B15, the Kd turned out to be 0.0332 µM, the off-rate (koff) was determined as 0.0134 s⁻¹ and the on-rate constant (kon) stood at 404000 M⁻¹ s⁻¹.

The target of the next test is T2, mouse MAdCAM. The test is described as follows: BLI (Octet), binder on AHC tips. In short, it runs like this:
as §1
As to B5, the dissociation constant Kd amounted to 0.112 µM, the koff came to 0.0177 s⁻¹, the kon was determined as 158000 M⁻¹ s⁻¹ and the response amounted to 0.149.

As for B6, the equilibrium dissociation constant (Kd) was found to be 0.206 µM, the koff amounted to 0.0251 s⁻¹, the kon was determined as 122000 M⁻¹ s⁻¹ and the response came to 0.169.

The molecule B7 registered an equilibrium dissociation constant (Kd) of 0.103 µM, a koff of 0.00886 s⁻¹, a kon of 85900 M⁻¹ s⁻¹ and a response of 0.083.

In turn, B8 gave a Kd of 0.105 µM, an off-rate (koff) of 0.017 s⁻¹, an association rate constant (kon) of 162000 M⁻¹ s⁻¹ and a response of 0.129.

In turn, B16 came in with a Kd of 0.119 µM, a koff of 0.0246 s⁻¹, an on-rate (kon) of 208000 M⁻¹ s⁻¹ and a response of 0.189.

As to B9, binding was put at a Kd of 1.02 µM, the koff was 0.00469 s⁻¹, the kon worked out at 4580 M⁻¹ s⁻¹ and the response was found to be 0.0278.

As to B10, the Kd turned out to be 0.118 µM, the dissociation rate constant (koff) is 0.0193 s⁻¹, the kon was determined as 163000 M⁻¹ s⁻¹ and the response came out at 0.153.

Molecule B11 came in with an equilibrium dissociation constant (Kd) of 0.115 µM, a koff of 0.012 s⁻¹, an on-rate constant (kon) of 105000 M⁻¹ s⁻¹ and a response of 0.133.

In turn, B12 gave a Kd of 0.134 µM, an off-rate constant (koff) of 0.0118 s⁻¹, an association rate constant (kon) of 87900 M⁻¹ s⁻¹ and a response of 0.132.

Consider B13, for which the Kd amounted to 0.141 µM, the koff came to 0.0178 s⁻¹, the on-rate (kon) was found to be 126000 M⁻¹ s⁻¹ and the response amounted to 0.141.

Turning to B14, the Kd came to 0.176 µM, the off-rate constant (koff) is 0.0178 s⁻¹, the on-rate (kon) was determined as 101000 M⁻¹ s⁻¹ and the response came out at 0.152.

On to B15, for which the equilibrium dissociation constant (Kd) was 0.0524 µM, the koff stood at 0.00596 s⁻¹, the kon turned out to be 114000 M⁻¹ s⁻¹ and the response worked out at 0.0549.
